Consider one substance from article PMC8472264.

By stoichiometry N is commonly meant the number of molecules, sites or subunits per partner or assembly.

For this assay, the target named is ArtB (untagged receptor-binding subunit of S. Typhimurium DT104 ArtAB) (Salmonella enterica Typhimurium DT104). Briefly: SDS-PAGE of unboiled samples.

Consider “ArtB (untagged receptor-binding subunit of S. Typhimurium DT104 ArtAB) (natural protein)”, for which the stoichiometry N was 5.
